From the supplement of paper PMC10065799, “High-throughput profiling of sequence recognition by tyrosine kinases and SH2 domains using bacterial peptide display” (eLife, 2023)

Columns and labels:
[1] = system: AncSZ; experiment: phosphorylation enrichment, bacterial display (enrichment ratio); higher = better substrate or ligand; peptides without Tyr show the background
[2] = molecular target: EPHB1 (UniProt P54762); experiment: as above
[3] = molecular target: EPHB2 (UniProt P29323); experiment: as above
[4] = molecular target: FGFR1 (UniProt P11362); experiment: as above
[5] = molecular target: FGFR3 (UniProt P22607); experiment: as above
[6] = system: Fer (mouse); experiment: as above
[7] = molecular target: Fes (UniProt P07332); experiment: as above
[8] = molecular target: Fyn (UniProt P06241); experiment: as above
[9] = molecular target: Hck (UniProt P08631); experiment: as above
[10] = molecular target: Jak2 (UniProt O60674); experiment: as above
[11] = molecular target: MERTK (UniProt Q12866); experiment: as above
[12] = system: c-Abl (mouse); experiment: as above
[13] = system: c-Src; experiment: as above
[14] = molecular target: Grb2 SH2 (UniProt P62993); experiment: SH2 binding enrichment of the phosphorylated peptide, bacterial display (enrichment ratio); higher = better substrate or ligand; peptides without Tyr show the background
[15] = molecular target: SHP2-C SH2; experiment: as above
[16] = molecular target: c-Src SH2; experiment: as above
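Throughout, for SH2 binding enrichment of the phosphorylated peptide, bacterial display: peptide library displayed on the E. coli surface as eCPX fusions, selected cells deep-sequenced, score is each peptide's frequency after selection divided by its frequency in the input.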
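Throughout, for phosphorylation enrichment, bacterial display: 11-residue human phosphosite peptides and single-mutation variants displayed on the E. coli surface, counted by deep sequencing, each peptide's frequency after selection divided by its frequency in the unselected input library; frequency after pTyr selection over input frequency; kinase dosed for 20-30% of maximal phosphorylation in three min.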

Sequence of Jak2 (O60674 whole entry, looked up): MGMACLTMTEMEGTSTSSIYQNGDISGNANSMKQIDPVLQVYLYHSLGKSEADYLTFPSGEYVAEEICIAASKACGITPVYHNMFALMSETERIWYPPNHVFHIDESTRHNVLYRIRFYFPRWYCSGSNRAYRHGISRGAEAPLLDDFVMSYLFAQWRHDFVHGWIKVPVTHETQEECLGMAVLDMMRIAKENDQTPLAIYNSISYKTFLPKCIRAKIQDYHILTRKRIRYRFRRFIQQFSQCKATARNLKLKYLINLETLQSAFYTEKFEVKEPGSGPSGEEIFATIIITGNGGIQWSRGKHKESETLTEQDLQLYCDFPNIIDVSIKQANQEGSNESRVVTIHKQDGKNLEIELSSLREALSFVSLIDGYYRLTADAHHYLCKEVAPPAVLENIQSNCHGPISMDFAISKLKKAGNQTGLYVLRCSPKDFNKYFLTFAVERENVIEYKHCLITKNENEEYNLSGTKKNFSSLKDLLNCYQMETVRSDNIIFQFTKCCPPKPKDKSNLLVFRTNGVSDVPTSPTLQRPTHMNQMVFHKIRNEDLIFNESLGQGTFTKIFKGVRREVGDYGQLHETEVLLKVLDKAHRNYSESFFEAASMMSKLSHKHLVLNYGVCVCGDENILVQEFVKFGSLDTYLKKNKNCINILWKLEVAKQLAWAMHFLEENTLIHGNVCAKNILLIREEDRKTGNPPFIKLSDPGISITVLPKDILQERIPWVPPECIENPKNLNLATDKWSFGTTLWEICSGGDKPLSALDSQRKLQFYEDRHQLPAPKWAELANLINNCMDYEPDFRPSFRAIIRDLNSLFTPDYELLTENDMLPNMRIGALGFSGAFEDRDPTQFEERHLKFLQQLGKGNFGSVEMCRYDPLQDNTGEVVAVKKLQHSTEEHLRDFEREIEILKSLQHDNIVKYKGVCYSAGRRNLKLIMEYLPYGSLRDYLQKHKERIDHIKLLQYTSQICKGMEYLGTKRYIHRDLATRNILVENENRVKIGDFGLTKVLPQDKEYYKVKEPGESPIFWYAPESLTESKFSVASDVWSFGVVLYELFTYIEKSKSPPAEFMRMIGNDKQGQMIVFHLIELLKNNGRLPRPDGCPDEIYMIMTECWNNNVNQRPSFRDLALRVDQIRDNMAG
Sequence of FGFR3 (P22607 whole entry, looked up): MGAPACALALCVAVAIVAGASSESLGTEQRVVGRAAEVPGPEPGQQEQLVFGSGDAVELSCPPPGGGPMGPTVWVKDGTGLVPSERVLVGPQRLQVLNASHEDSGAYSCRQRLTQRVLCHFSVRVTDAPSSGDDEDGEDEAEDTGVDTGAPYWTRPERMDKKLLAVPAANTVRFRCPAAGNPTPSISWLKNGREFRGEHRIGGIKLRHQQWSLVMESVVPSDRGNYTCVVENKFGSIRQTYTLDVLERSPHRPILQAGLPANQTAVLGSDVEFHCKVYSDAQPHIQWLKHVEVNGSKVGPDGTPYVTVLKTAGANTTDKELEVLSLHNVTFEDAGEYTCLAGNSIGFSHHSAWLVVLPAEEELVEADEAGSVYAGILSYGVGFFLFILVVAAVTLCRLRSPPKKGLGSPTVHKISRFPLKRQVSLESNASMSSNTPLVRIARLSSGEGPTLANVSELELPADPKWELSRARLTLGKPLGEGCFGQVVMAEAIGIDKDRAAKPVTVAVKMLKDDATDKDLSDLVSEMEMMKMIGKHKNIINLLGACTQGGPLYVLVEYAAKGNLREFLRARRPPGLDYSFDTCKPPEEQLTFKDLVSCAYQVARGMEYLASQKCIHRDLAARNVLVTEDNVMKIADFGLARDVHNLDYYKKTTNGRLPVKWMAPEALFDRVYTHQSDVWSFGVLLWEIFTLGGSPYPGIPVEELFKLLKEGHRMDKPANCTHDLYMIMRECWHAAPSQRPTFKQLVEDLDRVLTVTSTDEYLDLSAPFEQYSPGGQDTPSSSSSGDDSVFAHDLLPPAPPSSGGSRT
Sequence of Hck (P08631 whole entry, looked up): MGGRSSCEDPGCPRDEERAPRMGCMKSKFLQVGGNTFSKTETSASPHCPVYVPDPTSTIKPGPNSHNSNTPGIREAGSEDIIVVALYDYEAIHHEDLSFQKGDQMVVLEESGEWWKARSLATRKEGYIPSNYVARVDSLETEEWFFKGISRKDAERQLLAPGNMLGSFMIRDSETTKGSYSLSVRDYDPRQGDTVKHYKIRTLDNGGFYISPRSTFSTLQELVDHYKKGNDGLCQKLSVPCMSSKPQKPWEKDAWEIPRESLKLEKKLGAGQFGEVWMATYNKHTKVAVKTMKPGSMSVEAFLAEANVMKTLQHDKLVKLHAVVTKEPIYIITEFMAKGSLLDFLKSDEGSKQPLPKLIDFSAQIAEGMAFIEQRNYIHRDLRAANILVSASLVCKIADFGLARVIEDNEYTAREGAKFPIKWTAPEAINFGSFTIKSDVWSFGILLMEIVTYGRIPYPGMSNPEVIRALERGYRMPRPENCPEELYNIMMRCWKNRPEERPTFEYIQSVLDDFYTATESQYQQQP
Sequence of MERTK (Q12866 whole entry, looked up): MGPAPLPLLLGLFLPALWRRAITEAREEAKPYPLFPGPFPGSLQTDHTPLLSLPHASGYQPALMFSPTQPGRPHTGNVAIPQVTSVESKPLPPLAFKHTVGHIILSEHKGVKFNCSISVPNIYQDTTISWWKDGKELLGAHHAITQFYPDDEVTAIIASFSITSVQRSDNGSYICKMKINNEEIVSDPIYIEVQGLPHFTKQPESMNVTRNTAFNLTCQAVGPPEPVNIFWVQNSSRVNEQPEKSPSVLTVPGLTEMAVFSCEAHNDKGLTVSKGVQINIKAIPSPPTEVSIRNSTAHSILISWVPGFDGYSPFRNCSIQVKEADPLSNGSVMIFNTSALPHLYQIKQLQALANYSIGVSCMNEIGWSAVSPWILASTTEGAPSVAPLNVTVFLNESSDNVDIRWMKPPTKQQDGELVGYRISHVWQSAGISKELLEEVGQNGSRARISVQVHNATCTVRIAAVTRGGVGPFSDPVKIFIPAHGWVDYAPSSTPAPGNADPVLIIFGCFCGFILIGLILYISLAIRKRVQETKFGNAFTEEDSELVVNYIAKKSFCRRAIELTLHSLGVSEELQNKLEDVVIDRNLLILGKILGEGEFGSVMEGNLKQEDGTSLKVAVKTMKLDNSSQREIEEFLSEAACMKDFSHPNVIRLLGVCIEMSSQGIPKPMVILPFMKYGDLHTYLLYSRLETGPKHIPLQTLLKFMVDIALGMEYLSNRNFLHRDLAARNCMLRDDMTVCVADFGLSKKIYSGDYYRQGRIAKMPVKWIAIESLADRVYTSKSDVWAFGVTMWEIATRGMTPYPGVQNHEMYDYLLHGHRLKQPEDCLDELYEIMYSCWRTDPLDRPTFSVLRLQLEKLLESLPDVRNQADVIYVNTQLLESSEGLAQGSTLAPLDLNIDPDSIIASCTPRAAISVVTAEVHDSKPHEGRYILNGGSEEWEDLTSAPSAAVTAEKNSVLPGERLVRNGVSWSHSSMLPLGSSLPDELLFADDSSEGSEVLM
Sequence of EPHB1 (P54762 whole entry, looked up): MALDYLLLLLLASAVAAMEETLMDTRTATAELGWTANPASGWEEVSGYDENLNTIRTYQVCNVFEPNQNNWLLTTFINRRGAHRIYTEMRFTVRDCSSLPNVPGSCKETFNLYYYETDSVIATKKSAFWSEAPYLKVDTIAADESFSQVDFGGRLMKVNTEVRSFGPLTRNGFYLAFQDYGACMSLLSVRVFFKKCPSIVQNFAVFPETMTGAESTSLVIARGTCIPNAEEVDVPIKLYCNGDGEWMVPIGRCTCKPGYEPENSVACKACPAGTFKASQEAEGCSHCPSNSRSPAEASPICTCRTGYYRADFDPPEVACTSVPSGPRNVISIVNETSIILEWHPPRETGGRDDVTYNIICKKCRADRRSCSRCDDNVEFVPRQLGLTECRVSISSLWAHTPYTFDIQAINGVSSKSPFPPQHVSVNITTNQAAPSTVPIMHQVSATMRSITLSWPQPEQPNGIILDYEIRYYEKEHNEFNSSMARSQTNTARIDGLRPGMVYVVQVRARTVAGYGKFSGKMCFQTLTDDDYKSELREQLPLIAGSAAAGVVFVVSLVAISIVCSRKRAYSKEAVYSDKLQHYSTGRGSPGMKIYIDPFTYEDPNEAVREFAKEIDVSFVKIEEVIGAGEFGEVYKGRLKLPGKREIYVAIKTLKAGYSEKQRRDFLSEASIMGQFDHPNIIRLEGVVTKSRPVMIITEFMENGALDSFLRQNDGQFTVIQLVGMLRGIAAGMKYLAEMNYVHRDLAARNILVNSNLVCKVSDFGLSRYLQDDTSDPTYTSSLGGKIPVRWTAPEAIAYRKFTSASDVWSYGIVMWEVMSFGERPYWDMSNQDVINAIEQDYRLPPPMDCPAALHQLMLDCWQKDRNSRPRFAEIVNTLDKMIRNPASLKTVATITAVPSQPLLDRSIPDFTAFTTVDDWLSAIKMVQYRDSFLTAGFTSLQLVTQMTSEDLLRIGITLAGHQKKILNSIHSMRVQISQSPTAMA
Sequence of Fyn (P06241 whole entry, looked up): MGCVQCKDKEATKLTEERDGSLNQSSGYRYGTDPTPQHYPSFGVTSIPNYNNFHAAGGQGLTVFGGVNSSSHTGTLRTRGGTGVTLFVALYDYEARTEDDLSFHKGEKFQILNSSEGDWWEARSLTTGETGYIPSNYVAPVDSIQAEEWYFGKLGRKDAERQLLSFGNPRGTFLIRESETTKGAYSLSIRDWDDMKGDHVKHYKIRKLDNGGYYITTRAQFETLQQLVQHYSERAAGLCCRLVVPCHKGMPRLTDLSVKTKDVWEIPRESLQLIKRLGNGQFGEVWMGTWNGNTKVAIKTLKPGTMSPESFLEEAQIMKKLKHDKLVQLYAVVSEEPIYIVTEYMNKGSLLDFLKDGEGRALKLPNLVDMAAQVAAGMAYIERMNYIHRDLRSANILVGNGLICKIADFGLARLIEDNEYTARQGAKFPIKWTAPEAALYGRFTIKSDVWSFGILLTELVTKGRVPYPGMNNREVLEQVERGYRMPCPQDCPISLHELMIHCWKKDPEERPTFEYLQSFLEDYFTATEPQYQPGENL

| Sequence | SH2 binding enrichment [14] | SH2 binding enrichment [15] | SH2 binding enrichment [16] | phosphorylation enrichment [1] | phosphorylation enrichment [2] | phosphorylation enrichment [3] | phosphorylation enrichment [4] | phosphorylation enrichment [5] | phosphorylation enrichment [6] | phosphorylation enrichment [7] | phosphorylation enrichment [8] | phosphorylation enrichment [9] | phosphorylation enrichment [10] | phosphorylation enrichment [11] | phosphorylation enrichment [12] | phosphorylation enrichment [13] |
| --- | --- | --- | --- | --- | --- | --- | --- | --- | --- | --- | --- | --- | --- | --- | --- | --- |
| VAMDDYLKNVM [LRRK2_Y707] | 1.01 | 0.648 | 0.418 | 0.903 | 0.517 | 0.409 | 0.493 | 0.59 | 0.333 | 0.956 | 0.449 | 0.418 | 0.831 | 0.51 | 0.659 | 0.409 |
| VDSLRYIYPKL [EIF2B3_Y92_A87V] | 0.88 | 1.43 | 10.7 | 0.757 | 0.561 | 0.506 | 0.453 | 0.655 | 0.532 | 0.844 | 0.48 | 0.524 | 0.733 | 0.489 | 0.553 | 0.424 |
| VEFAKYGSLRG [RET_Y809_YF] | 0.817 | 0.82 | 0.584 | 0.629 | 0.403 | 0.458 | 0.417 | 0.469 | 0.4 | 0.664 | 0.528 | 0.488 | 0.541 | 0.397 | 0.622 | 0.437 |
| VEYAKYGSLRG [RET_Y809] | 0.461 | 2.61 | 0.583 | 0.544 | 0.441 | 0.409 | 0.349 | 0.47 | 0.395 | 0.552 | 1.21 | 0.758 | 0.335 | 0.473 | 0.824 | 1.56 |
| VFDMLYQVANL [USP24_Y1087_L1089V] | 1.16 | 1 | 0.769 | 1.79 | 2.75 | 5.28 | 0.943 | 0.923 | 11.7 | 1.06 | 2.92 | 4.24 | 0.863 | 2.78 | 2.06 | 4.11 |
| VGTTAYVAPEA [IRAK4_Y354_M355V] | 0.938 | 0.76 | 0.605 | 0.888 | 0.558 | 0.445 | 0.412 | 0.507 | 0.424 | 0.911 | 0.392 | 0.41 | 0.79 | 0.427 | 0.653 | 0.433 |
| VHHLVYHHHHH [CACNA1H_Y519] | 1.28 | 1.36 | 1.15 | 0.777 | 0.725 | 0.696 | 0.55 | 1.23 | 0.896 | 1.99 | 0.546 | 0.65 | 1.66 | 0.52 | 0.963 | 0.602 |
| VHNLDYYKETT [FGFR3_Y647_K650E] | 0.702 | 0.585 | 0.564 | 0.903 | 0.452 | 0.497 | 0.789 | 0.769 | 0.439 | 0.824 | 0.421 | 0.456 | 0.714 | 0.39 | 0.577 | 0.367 |
| VHNLNYYKKTT [FGFR3_Y647_D646N] | 1.04 | 0.746 | 0.539 | 0.506 | 0.429 | 0.449 | 0.447 | 0.665 | 0.32 | 0.682 | 0.435 | 0.464 | 0.728 | 0.528 | 0.671 | 0.487 |
| VLDSHYPEDEV [C1QBP_Y188_C186S] | 1.06 | 0.697 | 0.573 | 1.33 | 0.611 | 0.564 | 0.52 | 0.736 | 0.51 | 1.26 | 0.473 | 0.516 | 1.16 | 0.488 | 0.746 | 0.525 |
| VMICAYLLHRG [PTEN_Y138] | 1.05 | 0.714 | 0.723 | 1.21 | 0.612 | 0.63 | 0.642 | 0.778 | 0.688 | 1.68 | 0.478 | 0.558 | 1.36 | 0.482 | 1.27 | 0.644 |
| VNYGAYINDFN [GLB1_Y488_K493N] | 9.16 | 1.05 | 6.95 | 1 | 0.737 | 1.09 | 0.451 | 0.616 | 0.462 | 1 | 0.87 | 0.533 | 0.748 | 0.469 | 0.703 | 0.675 |
| VPDTNYTSDEE [STK33_Y439_A437T] | 1.23 | 0.811 | 0.675 | 1.23 | 0.562 | 0.658 | 0.606 | 0.708 | 0.511 | 1.19 | 0.56 | 0.552 | 1.07 | 0.437 | 0.748 | 0.465 |
| VPVPGYTKLPE [SPRR3_Y146] | 0.635 | 0.445 | 0.458 | 0.865 | 0.544 | 0.642 | 0.531 | 0.671 | 0.473 | 1.05 | 0.464 | 0.487 | 0.848 | 0.499 | 0.988 | 0.419 |
| VSSPKYGSNDE [TMCC2_Y473_D476N] | 0.722 | 0.657 | 0.519 | 0.867 | 0.452 | 0.536 | 0.406 | 0.619 | 0.509 | 0.912 | 0.445 | 0.426 | 0.857 | 0.454 | 0.801 | 0.514 |
| WCKPLYFSCAV [MMS22L_Y28_P27L] | 1.5 | 1.22 | 1.32 | 1.26 | 0.737 | 0.598 | 1.14 | 1.1 | 0.541 | 1.21 | 0.533 | 0.607 | 1.57 | 0.907 | 0.821 | 1.18 |
| YEDTLYTVLHR [UNC13D_Y61_A59T] | 0.761 | 0.525 | 2.26 | 2.9 | 12.2 | 9.31 | 2.08 | 2.09 | 9.1 | 1.41 | 7.58 | 8.16 | 1.39 | 8.84 | 3.32 | 6.38 |

The next lines start with results.

| SH2 binding enrichment [14] | SH2 binding enrichment [15] | SH2 binding enrichment [16] | Sequence | phosphorylation enrichment [1] | phosphorylation enrichment [2] | phosphorylation enrichment [3] | phosphorylation enrichment [4] | phosphorylation enrichment [5] | phosphorylation enrichment [6] | phosphorylation enrichment [7] | phosphorylation enrichment [8] | phosphorylation enrichment [9] | phosphorylation enrichment [10] | phosphorylation enrichment [11] | phosphorylation enrichment [12] | phosphorylation enrichment [13] |
| --- | --- | --- | --- | --- | --- | --- | --- | --- | --- | --- | --- | --- | --- | --- | --- | --- |
| 0.828 | 0.801 | 1.13 | VCRHNYGVVES [HLA-DRB1_Y112_Y107V] | 0.768 | 0.82 | 1.5 | 0.547 | 0.566 | 0.428 | 0.793 | 0.398 | 0.484 | 0.659 | 0.484 | 0.543 | 0.361 |
| 0.878 | 0.764 | 1.55 | VDTAMYATMQR [TPO_Y55] | 0.697 | 0.568 | 0.672 | 0.518 | 0.507 | 0.519 | 0.706 | 3.02 | 5.09 | 0.531 | 0.764 | 0.705 | 3.92 |
| 1.71 | 1.64 | 1.32 | VEDQFYCVDCF [FHL1_Y208_YF] | 1.61 | 0.748 | 0.697 | 0.703 | 0.863 | 0.874 | 1.29 | 1.44 | 0.926 | 1.35 | 5.12 | 0.867 | 1.73 |
| 0.892 | 0.861 | 0.528 | VGTKRYRAPEV [ACVRL1_Y375_M376R] | 0.443 | 0.308 | 0.338 | 0.298 | 0.363 | 0.364 | 0.565 | 0.379 | 0.305 | 0.351 | 0.339 | 0.499 | 0.335 |
| 0.795 | 0.573 | 0.449 | VHNLDYFKQTT [FGFR3_Y647_K650Q_YF] | 0.767 | 0.56 | 0.545 | 0.743 | 0.819 | 0.48 | 0.958 | 0.652 | 0.525 | 1.31 | 0.434 | 0.602 | 0.542 |
| 0.985 | 1.45 | 1 | VHYLVYHHHHH [CACNA1H_Y519_H516Y] | 1.17 | 0.687 | 0.666 | 0.7 | 1.07 | 0.678 | 2.17 | 0.537 | 0.632 | 1.49 | 0.773 | 1.4 | 0.587 |
| 0.988 | 0.863 | 2.9 | VKMLPYTEVTR [GDI1_Y93_L92P] | 0.555 | 0.437 | 0.431 | 0.416 | 0.49 | 0.282 | 0.717 | 0.368 | 0.45 | 0.573 | 0.494 | 0.492 | 0.4 |
| 0.953 | 2.77 | 5.28 | VLAAQYTTVGR [SGSH_Y240_D235V] | 0.551 | 0.503 | 0.307 | 0.352 | 0.48 | 0.394 | 0.598 | 0.367 | 0.543 | 0.426 | 0.421 | 0.514 | 0.445 |
| 0.833 | 1 | 0.938 | VLRQVYVDFEG [KMT2B_Y1707_R1705Q] | 1.16 | 0.877 | 0.722 | 0.721 | 0.871 | 0.579 | 1.28 | 1.85 | 0.86 | 0.993 | 0.465 | 0.692 | 1.42 |
| 0.719 | 0.775 | 0.461 | VMSMNYRVGAL [BCHE_Y174_V170M] | 0.767 | 0.578 | 0.592 | 0.485 | 0.573 | 0.438 | 0.878 | 0.462 | 0.447 | 0.715 | 0.416 | 0.686 | 0.484 |
| 0.91 | 0.634 | 0.691 | VPVNGYQPVPA [ROR2_Y824] | 0.859 | 0.554 | 0.391 | 0.55 | 0.517 | 0.52 | 0.748 | 0.382 | 0.422 | 0.416 | 0.382 | 0.439 | 0.413 |
| 0.82 | 4.37 | 1.69 | VQNIVYHTASI [CYP39A1_Y102_R103H] | 0.605 | 0.375 | 0.43 | 0.435 | 0.408 | 0.386 | 0.708 | 0.401 | 0.543 | 0.621 | 0.376 | 0.824 | 0.636 |
| 0.754 | 0.42 | 0.43 | VTSLKYSTSPY [BRIP1_Y916] | 0.751 | 0.52 | 0.498 | 0.487 | 0.467 | 0.451 | 0.655 | 0.523 | 0.516 | 0.6 | 0.493 | 0.537 | 0.542 |
| 0.979 | 0.7 | 0.711 | VVTFSYKPPGN [RBL2_Y544] | 0.634 | 0.455 | 0.476 | 0.592 | 0.519 | 0.367 | 0.696 | 0.42 | 0.429 | 0.911 | 0.431 | 0.673 | 0.423 |
| 0.772 | 0.798 | 0.498 | WNRDKYAATTT [TRIM39_Y439_G436R] | 0.734 | 0.448 | 0.401 | 0.439 | 0.34 | 0.37 | 0.59 | 0.358 | 0.375 | 0.65 | 0.471 | 0.542 | 0.411 |
| 0.83 | 0.817 | 0.501 | WPLKWYAPECI [ZAP70_Y506] | 1.25 | 0.886 | 0.766 | 0.573 | 0.806 | 0.598 | 1.39 | 0.565 | 0.405 | 1.03 | 0.433 | 0.666 | 0.425 |
